Kd data for two molecules are collected here from PMC7267745, “Histidine-Rich Glycoprotein Inhibits High-Mobility Group Box-1-Mediated Pathways in Vascular Endothelial Cells through CLEC-1A” (iScience, 2020).

One may read the Kd as the concentration at which binding is half-saturated.

Assay [1] addresses T1, Histidine-rich glycoprotein (HRG), purified from human plasma (human, UniProt P04196 19-525).
T1 chain: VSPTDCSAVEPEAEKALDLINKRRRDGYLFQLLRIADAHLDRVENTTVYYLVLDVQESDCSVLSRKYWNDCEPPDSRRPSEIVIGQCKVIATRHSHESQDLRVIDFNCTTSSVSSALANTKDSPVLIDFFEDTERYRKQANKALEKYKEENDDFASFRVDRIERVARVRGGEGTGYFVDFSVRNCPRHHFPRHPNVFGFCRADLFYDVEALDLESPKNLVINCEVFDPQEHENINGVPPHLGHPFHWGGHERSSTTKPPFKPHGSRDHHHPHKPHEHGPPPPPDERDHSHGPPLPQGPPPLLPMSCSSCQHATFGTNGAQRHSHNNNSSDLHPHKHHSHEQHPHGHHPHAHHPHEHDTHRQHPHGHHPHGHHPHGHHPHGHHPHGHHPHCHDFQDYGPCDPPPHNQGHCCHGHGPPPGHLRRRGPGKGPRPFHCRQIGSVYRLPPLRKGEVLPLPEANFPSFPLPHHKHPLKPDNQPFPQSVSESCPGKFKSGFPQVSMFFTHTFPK
The assay is described as follows: SPR. A general note: SPR reads the build-up and loss of mass on a sensor chip optically.

Assay [2] deals with T2, Histidine-rich glycoprotein (HRG), purified from human plasma (human, UniProt P04196 19-525).
T2 construct: histidine-rich glycoprotein, human, 75 kDa plasma protein; source: purified from human plasma
T2 sequence (looked up): T1 chain
The assay is described as follows: SPR; BIAcore; HRG purified from human plasma (5 μg/mL) immobilised on a CM5 chip; exCLEC-1A-Fc (3.125, 6.25, 12.5 or 25 μg/mL) or human recombinant exCLEC-1A flowed for 120 s. The settings on record: both partners purified.

Assay [3] addresses T2, Histidine-rich glycoprotein (HRG), …. The assay is described as follows: SPR; BIAcore; exCLEC-1A-Fc fusion protein immobilised on a CM5 sensor chip; HRG flowed over. To be noted: both partners purified.

B1: human recombinant exCLEC-1A protein (domain or fragment)
chain: QYYQLSNTGQDTISQMEERLGNTSQELQSLQVQNIKLAGSLQHVAEKLCRELYNKAGAHRCSPCTEQWKWHGDNCYQFYKDSKSWEDCKYFCLSENSTMLKINKQEDLEFAASQSYSEFFYSYWTGLLRPDSGKAWLWMDGTPFTSELFHIIIDVTSPRSRDCVAILNGMIFSKDCKELKRCVCERRAGMVKPESLHVPPETLGEGD
In the case of B1, the affinity in assay [1], expressed as Kd, was 400 nM.

B2: extracellular domain of CLEC-1A-Fc (exCLEC-1A-Fc) fusion protein (Fc fusion, UniProt Q8NC01 74-280, looked up)
chain: B1 chain
notes: extracellular domain of CLEC-1A; Source, limits and the kind of Fc are told only in the Transparent Methods (Document S1), if at all
Turning to B2, the Kd is 7 nM in assay [2] and 10 nM in assay [3].
